Consider 3 molecules from publication doi:10.1101/2022.12.30.522206.

Where two headings read alike, the source gives them in different places.

Common to all, as to assay: native gel or EMSA
(Mobility shift assays separate free from complexed probe on a gel.)

The target in experiment [1] is PduA*(A63R) (Salmonella typhimurium LT2).
Experiment [2] addresses PduA* (PduA with a C-terminal 23 residue extension) (Salmonella typhimurium LT2).
For experiment [3] the target is unchanged. The source holds these as a separate data set.

For PduA*(A63R) (natural protein), the stoichiometry N (commonly a count of units in the complex or per binding partner) in experiment [1] was 3 hexamers.

Regarding “PduA* (PduA with a C-terminal 23 residue extension) (natural protein)”, the stoichiometry N in experiment [2] came to 3 hexamers.

B1: PduL (enzyme)
chain: MDKQQLETTVTKVLDEMRERPIPLGISNRHIHLCAEDYDRLFPNHPISEKKELLQPGQYAADQTVTLVGPKGQLKNVRLLGPLRSTSQVEISRTDARTLGIAAPLRMSGSIEGTPGVRLISPFAELDLASGVIVAQRHIHMSPLDALILRVSHGDKVSVAINGDERRLIFDNVAVRVSPDMRLEMHIDTDEANAAGADNPQAFATLVSPR
Turning to B1, in experiment [3], the stoichiometry N turned out to be 1 and the stoichiometry N (PduL dimers per PduA trimer of hexamers) was determined as 3.
